Laboratory results taken from publication PMC6197697, “Rice transcription factor OsMADS25 modulates root growth and confers salinity tolerance via the ABA–mediated regulatory pathway and ROS scavenging”.

What was measured:
His-OsMADS25 [1] = molecular target: T1, His-OsMADS25 (Oryza sativa, UniProt Q84NC5 1-227); assay: EMSA; 5 mM Mg2+; competition stated to confirm specificity; 10 mM Tris pH 7.5, 50 mM KCl, 1 mM DTT, 2.5% glycerol, 5 mM MgCl2, 0.05% NP-40, 50 ng/ul poly(dI-dC), 30 ng protein, 400 fmol probe in 20 ul, 25 C 20 min (final values calculated from stocks); conditions: protein: recombinant; tags: His (pET32a fusion); chain copies: 2; label: biotin 3' end; blunt
His-OsMADS25 [2] = molecular target: T1, His-OsMADS25; assay: EMSA; 5 mM Mg2+; 10 mM Tris pH 7.5, 50 mM KCl, 1 mM DTT, 2.5% glycerol, 5 mM MgCl2, 0.05% NP-40, 50 ng/ul poly(dI-dC), 30 ng protein, 400 fmol probe in 20 ul, 25 C 20 min (final values calculated from stocks); conditions: protein: recombinant; tags: His (pET32a fusion); chain copies: 2; label: biotin 3' end; blunt

T1 sequence (Q84NC5 whole entry, the tested form may be a part): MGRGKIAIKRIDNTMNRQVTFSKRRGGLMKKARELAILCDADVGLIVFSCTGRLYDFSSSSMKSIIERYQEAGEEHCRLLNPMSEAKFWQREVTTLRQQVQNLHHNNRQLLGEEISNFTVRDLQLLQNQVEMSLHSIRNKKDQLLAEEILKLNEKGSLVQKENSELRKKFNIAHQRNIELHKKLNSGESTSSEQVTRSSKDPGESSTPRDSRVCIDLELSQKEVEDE

B1: OsP5CR P2 probe (dsDNA)
DNA 1: CGACGAATCCATTCATATATTTGTAGGGGCAGCGG
DNA 2: CCGCTGCCCCTACAAATATATGAATGGATTCGTCG
binding result (His-OsMADS25 [1]): binds

B2: OsP5CR P1 probe (dsDNA)
DNA 1: CAGAGGGCATTCTCCCTAATAAGGCAGATACCTCCG
DNA 2: CGGAGGTATCTGCCTTATTAGGGAGAATGCCCTCTG
binding result (His-OsMADS25 [2]): no binding
